From the supplement of paper PMC9233669
This sample holds only a part of the variants without activity.

How the values were obtained:
[1] = system: biotinyl-Ile-oxazolone; test: self-aminoacylation, catalytic enhancement (BIO) (fold over background); higher = more active; k-Seq, kA / k0A0; sequences stand for … in GGGAAUGGAUCCACAUCUACGAAUUC…UUCACUGCAGACUUGACGAAGCUG
Summary of the method: (§1)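 Working in 50 μL HEPES/NaCl/KCl/MgCl2/CaCl2 buffer with 5% acetonitrile at pH 6.9–7.0, mutagenized RNA pools (0.43 μM; 21-nt variable region) were reacted with 2–1250 μM of each biotinyl-aminoacyl-oxazolone for 90 minutes at room temperature. Streptavidin capture followed, with quantification by triplicate qPCR and Illumina sequencing. Catalytic enhancement is reported as median kA over the uncatalyzed rate, the low-activity peak of a bimodal Gaussian fit to the data.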

[2] = system: biotinyl-Val-oxazolone; test: self-aminoacylation, catalytic enhancement (BVO) (fold over background); higher = more active; k-Seq, kA / k0A0; sequences stand for … in GGGAAUGGAUCCACAUCUACGAAUUC…UUCACUGCAGACUUGACGAAGCUG
Summary of the method: as §1

[3] = system: biotinyl-Phe-oxazolone; test: self-aminoacylation, catalytic enhancement (BFO) (fold over background); higher = more active; k-Seq, kA / k0A0; sequences stand for … in GGGAAUGGAUCCACAUCUACGAAUUC…UUCACUGCAGACUUGACGAAGCUG
Summary of the method: as §1

[4] = system: biotinyl-Met-oxazolone; test: self-aminoacylation, catalytic enhancement (BMO) (fold over background); higher = more active; k-Seq, kA / k0A0; sequences stand for … in GGGAAUGGAUCCACAUCUACGAAUUC…UUCACUGCAGACUUGACGAAGCUG
Summary of the method: as §1

[5] = system: biotinyl-Trp-oxazolone; test: self-aminoacylation, catalytic enhancement (BWO) (fold over background); higher = more active; k-Seq, kA / k0A0; sequences stand for … in GGGAAUGGAUCCACAUCUACGAAUUC…UUCACUGCAGACUUGACGAAGCUG
Summary of the method: as §1

[6] = system: biotinyl-Leu-oxazolone; test: self-aminoacylation, catalytic enhancement (BLO) (fold over background); higher = more active; k-Seq, kA / k0A0; sequences stand for … in GGGAAUGGAUCCACAUCUACGAAUUC…UUCACUGCAGACUUGACGAAGCUG
Summary of the method: as §1

| Sequence | self-aminoacylation [1] | self-aminoacylation [2] | self-aminoacylation [3] | self-aminoacylation [4] | self-aminoacylation [5] | self-aminoacylation [6] |
| --- | --- | --- | --- | --- | --- | --- |
| GUUACUCUGGUCAUCGAGUGA [Fam2.1 aminoacylation ribozyme variant] | 4.98 | 4.18 | 32.9 | 6.92 | 9.78 | 7.08 |
| CCACAGUUCAACCAAUCGGUC [Fam1B.1 aminoacylation ribozyme variant] | 1.28 | 1.26 | 6.48 | 1.23 | 5.76 | 1.51 |
| CCACACUUCAGGCAAUCGAUC [Fam1B.1 aminoacylation ribozyme variant] | 0.813 | 0.892 | 0.731 | 0.634 | 0.804 | 0.591 |
| CCACACUUCACGCAAACGGUC [Fam1B.1 aminoacylation ribozyme variant] | 0.736 | 0.995 | 0.827 | 0.793 | 0.98 | 0.861 |
| CUAUUUCGAACAAUCGGUCUG [Fam1A.1 aminoacylation ribozyme variant] | 0.814 | 0.793 | 0.664 | 0.799 | 0.67 | 0.697 |
| ACUCACCUAGGUUAUCGGGUG [Fam2.2 aminoacylation ribozyme variant] | 4.89 | 5.05 | 46 | 3.92 | 7.29 | 5.42 |
| CCACAAUUCAAGCAAUGGGUC [Fam1B.1 aminoacylation ribozyme variant] | 1.22 | 1.03 | 0.531 | 1.13 | 0.734 | 1.17 |
| GAGUUCGCUAAUAGUCGCAAG [Fam3.1 aminoacylation ribozyme variant] | 2.8 | 2.52 | 8.98 | 1.91 | 2.21 | 2.71 |
| CUUACCCUGGUCAUCGACUGA [Fam2.1 aminoacylation ribozyme variant] | 1.1 | 0.739 | 0.459 | 0.673 | 1.31 | 0.833 |
| AAUACCCUGGUCAUUGAGUGA [Fam2.1 aminoacylation ribozyme variant] | 2.98 | 2.9 | 17.1 | 5.79 | 6.33 | 5.25 |
| CUACUUCAAACAACCGGUCUG [Fam1A.1 aminoacylation ribozyme variant] | 0.874 | 0.845 | 1.07 | 0.729 | 0.844 | 0.791 |
| AUUAACCUAUGUCAUCGGGUG [Fam2.2 aminoacylation ribozyme variant] | 3.43 | 3.13 | 36 | 5.3 | 5.05 | 6.82 |
| AUUACCGUGGUCAUCGCGUGA [Fam2.1 aminoacylation ribozyme variant] | 8.94 | 11 | 140 | 17.7 | 22.2 | 21.5 |
| AUUCACCUAGGUCAUCUGGUC [Fam2.2 aminoacylation ribozyme variant] | 0.522 | 0.686 | 0.411 | 0.623 | 0.378 | 0.596 |
| CUACUUCAAAUAAUCGGUGUG [Fam1A.1 aminoacylation ribozyme variant] | 0.826 | 0.826 | 3.23 | 0.983 | 2.4 | 1 |
| AAGUUGGCUGAUAGUCGCAAG [Fam3.1 aminoacylation ribozyme variant] | 1.8 | 1.7 | 2.34 | 1.49 | 1.86 | 1.55 |
| AUUCACCUACAUCAUCGGGUG [Fam2.2 aminoacylation ribozyme variant] | 2.19 | 2.06 | 22.1 | 3.63 | 3.07 | 3.91 |
| CUACUUCAAACAUUCGGUCUG [Fam1A.1 aminoacylation ribozyme variant] | 0.994 | 1.01 | 0.828 | 0.904 | 0.904 | 0.892 |
| CUACUUCAAACACUCUGUCUG [Fam1A.1 aminoacylation ribozyme variant] | 0.797 | 0.724 | 0.709 | 0.608 | 0.678 | 0.547 |
| AAGUUUGCUAAUAUUCUCAAG [Fam3.1 aminoacylation ribozyme variant] | 1.1 | 1.18 | 1.04 | 1.17 | 1.48 | 1.15 |
| AUUCACCUAGGUCAUCGGUUC [Fam2.2 aminoacylation ribozyme variant] | 1.33 | 1.43 | 4.35 | 1.43 | 1.07 | 1.19 |
| GCACACUUCAAGCAAUCGGUA [Fam1B.1 aminoacylation ribozyme variant] | 2.84 | 2.5 | 2.95 | 1.98 | 3.53 | 2.26 |
| GUUCACCUAGGUCAUCGGCUG [Fam2.2 aminoacylation ribozyme variant] | 1.67 | 1.98 | 7.17 | 1.49 | 1.97 | 2.04 |
| CUACUUCAAAAAAUCAGUCUG [Fam1A.1 aminoacylation ribozyme variant] | 0.841 | 0.754 | 5.75 | 0.744 | 2.61 | 0.804 |
| AUUACCCUGGUCACCGAGUGG [Fam2.1 aminoacylation ribozyme variant] | 1.57 | 2.08 | 7.88 | 2.6 | 3.23 | 3.56 |
| UUUACCCUGGUCAGCGAGUGA [Fam2.1 aminoacylation ribozyme variant] | 3.46 | 2.96 | 16.3 | 5.62 | 7.06 | 5.43 |

| Sequence | self-aminoacylation [1] | self-aminoacylation [2] | self-aminoacylation [3] | self-aminoacylation [4] | self-aminoacylation [5] | self-aminoacylation [6] |
| --- | --- | --- | --- | --- | --- | --- |
| CAACUUCAAACAAGCGGUCUG [Fam1A.1 aminoacylation ribozyme variant] | 1.42 | 1 | 1.19 | 1.24 | 1.3 | 1.12 |
| AUUAACCUAGGUCAUAGGGUG [Fam2.2 aminoacylation ribozyme variant] | 1.29 | 1.36 | 1.19 | 1.41 | 2.08 | 1.74 |
| AAGUUUGCUAAUAGUCGUAAA [Fam3.1 aminoacylation ribozyme variant] | 0.909 | 1.04 | 2.23 | 0.973 | 1.01 | 0.826 |
| CCAAACUUCAAGCAAUCGGUC [Fam1B.1 aminoacylation ribozyme variant] | 1.19 | 1.26 | 30.1 | 1.02 | 15.6 | 1.41 |
| AUUCACCUAGGGCAUCGGCUG [Fam2.2 aminoacylation ribozyme variant] | 1.75 | 2.01 | 7.35 | 2.03 | 1.64 | 2.42 |
| AAGUUUGCUGAUAGUCGGAAG [Fam3.1 aminoacylation ribozyme variant] | 0.72 | 0.838 | 0.837 | 0.933 | 0.832 | 0.849 |
| AUUCACUUAGGUCAUGGGGUG [Fam2.2 aminoacylation ribozyme variant] | 3.61 | 3.31 | 46.2 | 5.58 | 5.74 | 7.09 |
| AGUACCCGGGUCAUCGAGUGA [Fam2.1 aminoacylation ribozyme variant] | 4.51 | 3.98 | 49.1 | 7.25 | 7.64 | 7.7 |
| AUACUUCAAACAAUCGGUCAG [Fam1A.1 aminoacylation ribozyme variant] | 0.82 | 0.891 | 3.2 | 0.672 | 1.88 | 0.728 |
| AAUCACCUAGGUCAUCCGGUG [Fam2.2 aminoacylation ribozyme variant] | 4.59 | 4.15 | 50 | 5.22 | 6.07 | 6.61 |
| CCACUUCAAACAAUCGGCCUG [Fam1A.1 aminoacylation ribozyme variant] | 4.3 | 4.05 | 425 | 4.68 | 145 | 7.46 |
| CUACUUCAAACAACCAGUCUG [Fam1A.1 aminoacylation ribozyme variant] | 1.02 | 0.797 | 0.953 | 0.899 | 0.573 | 0.668 |
| CUAGUUCAAACAAUCGGUCUU [Fam1A.1 aminoacylation ribozyme variant] | 1.14 | 1.01 | 5.06 | 1.25 | 3.27 | 1.26 |
| AAGUUUGCUAAUACACGCAAG [Fam3.1 aminoacylation ribozyme variant] | 0.665 | 0.627 | 1.19 | 0.7 | 0.66 | 0.564 |
| AUUCACCUACGUCAUCGGGAG [Fam2.2 aminoacylation ribozyme variant] | 0.803 | 0.861 | 0.516 | 1.23 | 0.502 | 1.07 |
| UUUCACCUAUGUCAUCGGGUG [Fam2.2 aminoacylation ribozyme variant] | 3.35 | 3.56 | 31.4 | 4.6 | 5.28 | 5.1 |
| AUUACCCUGGUGGUCGAGUGA [Fam2.1 aminoacylation ribozyme variant] | 1.47 | 1.61 | 12.8 | 2.28 | 1.83 | 1.95 |
| CUAGUUCAAACAAUCGGUCCG [Fam1A.1 aminoacylation ribozyme variant] | 0.787 | 0.649 | 0.893 | 0.742 | 0.582 | 0.745 |
| CCACACCUCAAGCAGUCGGUC [Fam1B.1 aminoacylation ribozyme variant] | 1.34 | 1.6 | 0.725 | 1.02 | 1.02 | 1.47 |
| AAUUUUGCUAAUAGUCGGAAG [Fam3.1 aminoacylation ribozyme variant] | 1.23 | 1.03 | 3.1 | 1.13 | 1.2 | 1.22 |
| CCACACUUCUAGCAAUCUGUC [Fam1B.1 aminoacylation ribozyme variant] | 0.424 | 0.502 | 0.693 | 0.378 | 0.292 | 0.354 |
| AUUAUCCUGUUCAUCGAGUGA [Fam2.1 aminoacylation ribozyme variant] | 2.87 | 3 | 22.6 | 5.98 | 7.47 | 6 |
| AUUACCCCGGGCAUCGAGUGA [Fam2.1 aminoacylation ribozyme variant] | 3.78 | 4.03 | 39.4 | 5.45 | 8.11 | 8.03 |
| AAGUUUGCUAAUAGUGGCAAG [Fam3.1 aminoacylation ribozyme variant] | 0.737 | 0.739 | 0.894 | 0.734 | 0.773 | 0.692 |
| CUACUUCAAACCAUCGGGCUG [Fam1A.1 aminoacylation ribozyme variant] | 1.97 | 1.92 | 0.939 | 2.16 | 1.77 | 1.73 |
